The results in this text go back to US20250145691A1.

The assay deals with Pangolin CoV S2-37 (Pangolin CoV).

B1: Antibody SC45 Fab (Fab, V domains shown)
VH: QVQLQESGPGLVKSSETLSLTCTVSGGSISSYYWSWIRQPPGKGLEWIGCIYSSGSTNYNPSLKSRVTISVDSSKNQFSLRLNSVTAADTAVYYCARHKGTDFWSGYSFTPRGGWFDPWGQGALVSVSS
VL: DIQMTQSPSSLSASVGDRVTITCRASQSISSYLNWYQQKPGKAPKLLIYGASNLQSGVPSRFSGSGSETDFTLTISSLQPEDFASYYCQQSHSIPVTFGQGTKLEIK
In the case of B1, the koff worked out at 0.000923 s⁻¹ and the kon was determined as 32100 M⁻¹ s⁻¹.
